According to US20230279105A1 (SINGLE CELL TECHNOLOGY, published 2023):
Where a chain is given by its changes, count along the chain named. Each block holds one binder with its values, some of them ahead of it.

Target: T1, Human TIM-3 Human Fc tagged protein (human, fluorescently labeled with HiLyte Fluor 555 (sites not given))
T1 construct: Bought construct; also called TIM-3 protein tagged with human Fc; ACROBiosystems catalog no: TM3-H5258
Test: capture slide probed with labeled TIM-3-Fc;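 further: IgG from single CD138-enriched plasma cells, isolated from lymphocytes, immobilized on a derivatized glass slide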

B1: SCT-Fa113 (antibody, V domains shown)
VH: QVQLQQPGAEFVKPGASVKLSCEASGNTFTSYWIQWVKQRPGQGLEWIGEIDPSDSYIDYNQKFKDKATLTVDTSSSTAYMHLSSLTSEDSAVYYCAREGAYSSPFAYWGQGTLVTVSA
VL: DILMTQSPSSMSVSLGDTISIICHASQDIRSNIGWLQQKPGKSFKGLIYHGSNLEDGVPSRFSGSGSGADYSLTISSLESEDFADYYCVQYIQFPRTFGGGTKVEIK
notes: murine IgG
- binding result: binds

B2: SCT-Fa012 (antibody, V domains shown)
VH: EVKLVESEGGLVQPGSSMKLSCTASGFTFSDYYMAWVRQVPEKGLEWVAHINFDGSGTYYLDSLKSRFIISRDNAKNILYLQLSSLKSEDTATYYCARLYDGSHDYWGQGTTLTVSS
VL: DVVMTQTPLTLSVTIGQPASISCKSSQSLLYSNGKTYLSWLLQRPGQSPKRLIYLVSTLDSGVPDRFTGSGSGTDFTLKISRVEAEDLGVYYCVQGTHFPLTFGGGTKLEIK
notes: murine IgG
- binding result: binds

B3: SCT-Fa015 (antibody, V domains shown)
VH: B2 VH with A75E, N77S
VL: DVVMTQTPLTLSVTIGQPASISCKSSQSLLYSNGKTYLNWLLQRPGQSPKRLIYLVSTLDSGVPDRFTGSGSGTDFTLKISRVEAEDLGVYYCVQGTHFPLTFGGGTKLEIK
notes: murine IgG
- binding result: binds

B4: SCT-Fa010 (antibody, V domains shown)
VH: B2 VH with V48I, H50N, L83M, H104L
VL: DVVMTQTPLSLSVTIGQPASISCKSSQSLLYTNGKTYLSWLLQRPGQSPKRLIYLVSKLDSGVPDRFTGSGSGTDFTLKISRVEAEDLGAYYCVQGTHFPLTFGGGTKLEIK
notes: murine IgG
- binding result: binds

B5: SCT-Fa016 (antibody, V domains shown)
VH: B2 VH with A75T
VL: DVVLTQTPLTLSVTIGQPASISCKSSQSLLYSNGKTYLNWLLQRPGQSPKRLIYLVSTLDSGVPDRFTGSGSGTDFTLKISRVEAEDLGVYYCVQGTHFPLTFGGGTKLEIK
notes: murine IgG
- binding result: binds

B6: SCT-Fa017 (antibody, V domains shown)
VH: B2 VH with H50N, L83M
VL: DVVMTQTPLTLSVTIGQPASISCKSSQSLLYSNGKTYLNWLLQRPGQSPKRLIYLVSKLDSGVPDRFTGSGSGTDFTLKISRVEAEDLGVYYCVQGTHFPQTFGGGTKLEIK
notes: murine IgG
- binding result: binds

B7: SCT-Fa013 (antibody, V domains shown)
VH: B2 VH with A92G
VL: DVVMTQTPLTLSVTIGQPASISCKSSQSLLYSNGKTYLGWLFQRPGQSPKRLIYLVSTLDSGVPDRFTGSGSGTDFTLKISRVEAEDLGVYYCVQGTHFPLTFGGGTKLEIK
notes: murine IgG
- binding result: binds

B8: SCT-Fa019 (antibody, V domains shown)
VH: B2 VH with A35S, H50N, L83M, K87R, T111S, T112A
VL: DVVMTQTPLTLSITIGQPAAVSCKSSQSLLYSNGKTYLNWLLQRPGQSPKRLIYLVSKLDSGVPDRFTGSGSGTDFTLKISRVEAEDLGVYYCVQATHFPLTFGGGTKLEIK
notes: murine IgG
- binding result: binds

B9: SCT-Fa011 (antibody, V domains shown)
VH: B2 VH
VL: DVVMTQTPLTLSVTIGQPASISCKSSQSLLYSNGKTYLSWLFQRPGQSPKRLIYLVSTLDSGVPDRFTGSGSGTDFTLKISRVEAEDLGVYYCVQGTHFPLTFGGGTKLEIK
notes: murine IgG
- binding result: binds

B10: SCT-Fa014 (antibody, V domains shown)
VH: B2 VH with A92G
VL: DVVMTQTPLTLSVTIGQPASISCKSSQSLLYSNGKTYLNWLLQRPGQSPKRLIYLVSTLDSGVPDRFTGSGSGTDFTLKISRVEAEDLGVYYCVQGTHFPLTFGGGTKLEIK
notes: murine IgG
- binding result: binds

B11: SCT-Fa127 (antibody, V domains shown)
VH: QVQLQQPGAELVMPGASVKLSCKASGYTFTTYWMHWVKQRPGQGLEWIGEIDPSDGYSNYNQNFKGKATLTVDKSSSTAYLQLSSLTSEDSAVYYCARNYGSNYVGYFDYWGQGTTLTVSS
VL: DIQMTQTTSSLSASLGDRVTISCRSSQDISNYLNWYQQKPDGTVKLLIYYTSRLHSGVPSSFSGSGSGTDYSLTISNLEQEDIATYFCQQANALPWTFGGGTKLEIK
notes: murine IgG
- binding result: binds

B12: SCT-Fa123 (antibody, V domains shown)
VH: B11 VH with T30N, G56S, S58T, K65N
VL: B11 VL with S25A, H55P, N92K
notes: murine IgG
- binding result: binds

B13: SCT-Fa124 (antibody, V domains shown)
VH: B11 VH with T30S, G56S, S58T, L81M, Y110H, Q113R
VL: B11 VL with S25A, E79A, A91G
notes: murine IgG
- binding result: binds

B14: SCT-Fa126 (antibody, V domains shown)
VH: B11 VH with T31S, G56S, N63K, L81M, S84I
VL: B11 VL with S25A, H55L, S61R, A91G, A93T, K103N
notes: murine IgG
- binding result: binds

B15: SCT-Fa125 (antibody, V domains shown)
VH: B11 VH with T31S, G56N, S58T, N63K, K74G, L81M
VL: B11 VL with S25A, D28G, L54F, S61R, A91G, A93S
notes: murine IgG
- binding result: binds

B16: SCT-Fa122 (antibody, V domains shown)
VH: B11 VH with K23E, Y32F, M34I, G56S, S58T
VL: B11 VL with S25A, T85I
notes: murine IgG
- binding result: binds

B17: SCT-Fa107 (antibody, V domains shown)
VH: QVQLKQSGAELVRPGTSVKLSCKASGYTLTDYYINWVKQRPGQGLEWIARIYPGNGNTYYNEKFKGKATLTAEKSSSTVNMQVSSLTSEDSAVYFCARGGSSDRIYYYAMDYWGQGTSVTVSS
VL: DIQMNQSPSSLSASLGDTITITCHASQNINVWLSWYQQKPGNIPKLLIYKASNLHTGVPSRFSGSGSGTGFTLTISSLQPEDIATYYCQQGQSYPLTFGSGTKLEIK
notes: murine IgG
- binding result: binds

B18: SCT-Fa105 (antibody, V domains shown)
VH: B17 VH with S77N
VL: B17 VL with N42D
notes: murine IgG
- binding result: binds

B35: SCT-Fa116 (antibody, V domains shown)
VH: QVQLQQPGAELVKPGASVKLSCKASGYSFISSWMEWVKQRPGQGLEWIGRIHPSDSDTNYNQKFKAKATLTVDKSSSTAYMQLSSLTSEDSAVYYCAIIHRGFYFAMDYWGQGTSVTVSS
VL: DVLMTQTPLSLPVSLGDQASISCRSSQSIVHSNGNTYLEWYLQKPGQSPKLLIYKVSNRFSGVPDRFSGSGSGTDFTLKISRVEAEDLGVYYCFQGSHVPWTFGGGTKLEIK
notes: murine IgG
- binding result: binds

B36: SCT-Fa121 (antibody, V domains shown)
VH: QVQLQQPGAELVKPGASVKVSCKASGYTFISHWMYWVRQRPGQGLEWIGRIHPSDSDTDYSQEFKGKATLTVDKSSSTAHMQLSSLTSEDSAVYYCAIWSYYYGSRLDYWGQGTTLTVSS
VL: B35 VL with T7A, L9P, S28N, K44R, F94C, W101Y
notes: murine IgG
- binding result: binds

The next lines start with the values.

- binding result: binds
B19: SCT-Fa101 (antibody, V domains shown)
VH: B17 VH with T30I
VL: B17 VL
notes: murine IgG

- binding result: binds
B20: SCT-Fa108 (antibody, V domains shown)
VH: B17 VH with S84T, V93I
VL: B17 VL with I106V
notes: murine IgG

- binding result: binds
B21: SCT-Fa110 (antibody, V domains shown)
VH: B17 VH with K19R, S84T
VL: B17 VL
notes: murine IgG

- binding result: binds
B22: SCT-Fa106 (antibody, V domains shown)
VH: B17 VH with V79A, N80Y, D103V, I105V
VL: B17 VL with P59T
notes: murine IgG

- binding result: binds
B23: SCT-Fa098 (antibody, V domains shown)
VH: B17 VH with T28I
VL: B17 VL with T74A, E105A, I106L
notes: murine IgG

- binding result: binds
B24: SCT-Fa109 (antibody, V domains shown)
VH: B17 VH with S84T, V93I, G116V
VL: B17 VL with I106V
notes: murine IgG

- binding result: binds
B25: SCT-Fa097 (antibody, V domains shown)
VH: B17 VH with T28I, Y112H
VL: B17 VL with T20N, S60L
notes: murine IgG

- binding result: binds
B26: SCT-Fa104 (antibody, V domains shown)
VH: B17 VH with G66C, S84T, V93I
VL: B17 VL with I106V
notes: murine IgG

- binding result: binds
B27: SCT-Fa103 (antibody, V domains shown)
VH: B17 VH with Y59L, E62A, K65E, K74R, V79A, N80Y, D103V, I105V, Y112F
VL: B17 VL
notes: murine IgG

- binding result: binds
B28: SCT-Fa194 (antibody, V domains shown)
VH: B17 VH with K5R
VL: B17 VL with P44L
notes: murine IgG

- binding result: binds
B29: SCT-Fa102 (antibody, V domains shown)
VH: B17 VH with T30N, G56N, S77N, V79A, N80Y, D103V, I105V
VL: B17 VL
notes: murine IgG

- binding result: binds
B30: SCT-Fa093 (antibody, V domains shown)
VH: B17 VH with Q3H
VL: B17 VL
notes: murine IgG

- binding result: binds
B31: SCT-Fa099 (antibody, V domains shown)
VH: B17 VH with T28I
VL: B17 VL
notes: murine IgG

- binding result: binds
B32: SCT-Fa100 (antibody, V domains shown)
VH: B17 VH with T30I, Y108F
VL: B17 VL
notes: murine IgG

- binding result: binds
B33: SCT-Fa111 (antibody, V domains shown)
VH: QVQLKQSGPGLVQPSQSLSITCTVSGFSLISYGVHWVRQSPGKGLEWLGIIWSGGNTDYNAAFISRLSISKDNSKSQVFFKLNSLQADDTAIYYCARTANALDYWGQGTSVTVSS
VL: B35 VL with S28T
notes: murine IgG

- binding result: binds
B34: SCT-Fa120 (antibody, V domains shown)
VH: QVQLQQPGAELVKPGASVKVSCKASGYSFISYWMYWVKQRPGQGLEWIGRIHPSDSDTNYNQKYKGKATLTVDRSSSTAYMQLSSLTSEDSAVYYCTISHYSGSSPETYWGQGTTLTVSS
VL: B35 VL with W101Y
notes: murine IgG

- binding result: binds
B37: SCT-Fa150 (antibody, V domains shown)
VH: B36 VH with L11V, T28S, S105T
VL: B35 VL with L9P, S28N, K44R, F94C, W101Y
notes: murine IgG

- binding result: binds
B38: SCT-Fa119 (antibody, V domains shown)
VH: B35 VH with L20V, A66G
VL: B35 VL
notes: murine IgG

- binding result: binds
B39: SCT-Fa118 (antibody, V domains shown)
VH: QVQLQQPGAELVKPGASVKLSCKASGYTFISYWMHWVKQRPGRGLEWIGRIDPNSGDTKYNEKFKSKATLTVDKPSSTAYMQLSSLISEDSAVYYCARWGWDAFAYWGQGTLVTVSA
VL: DAVMTQTPLSLPVSLGDQASISCRSSQSLENSDGNTYLNWYFQKTGQSPQLLIYRVSNRFSGVLDRFSGSGSGTDFTLKISRVEAEDLGVYFCLQVTHVPPTFGAGTKLELK
notes: murine IgG
